Laboratory results taken from publication PMC12080732 (mAbs, 2025).
Positions count from the first letter of the chain named.

B1: TNFI-Nb2 (VHH)
VHH: QVQLVESGGGLVQPGGSLRLSCAASGFAFNDHWMYWVRQAPGKELEWVSEINTNGLITKYADFVKGRFTVSRDNAKNTLYLQMNSLEPEDTAVYSCSRNQIGTLRGQGTQVTVSS
B2: TNFI-Nb1 (VHH)
VHH: B1 VHH with Q1E, N84D, E87R
B3: TNFI-Nb3 (VHH)
VHH: B1 VHH with K76E

Target: active trimeric human TNFα (human, UniProt P01375 77-233)
Test: SPR

active trimeric human TNFα, sequence (P01375 77-233): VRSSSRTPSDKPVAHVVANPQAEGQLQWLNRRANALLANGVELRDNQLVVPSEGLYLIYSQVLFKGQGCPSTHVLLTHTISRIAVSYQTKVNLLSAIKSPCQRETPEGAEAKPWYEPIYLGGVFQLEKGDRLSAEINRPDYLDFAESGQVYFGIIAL

Binder | Kd [nM] | koff [s⁻¹]
B1 | 0.077 | 2.87e-05
B2 | 0.219 | –
B3 | 0.392 | –
